Here are results for 4 molecules from patent US20180265864, “Genome Engineering Methods Using a Cytosine-Specific CAS9” (Florida State University Research Foundation, Inc., published 2018).

Series [1] concerns the target T1, AceCas9 (in E. coli) (Acidothermus cellulolyticus 11B) (UniProt A0LWB3).
T1 sequence: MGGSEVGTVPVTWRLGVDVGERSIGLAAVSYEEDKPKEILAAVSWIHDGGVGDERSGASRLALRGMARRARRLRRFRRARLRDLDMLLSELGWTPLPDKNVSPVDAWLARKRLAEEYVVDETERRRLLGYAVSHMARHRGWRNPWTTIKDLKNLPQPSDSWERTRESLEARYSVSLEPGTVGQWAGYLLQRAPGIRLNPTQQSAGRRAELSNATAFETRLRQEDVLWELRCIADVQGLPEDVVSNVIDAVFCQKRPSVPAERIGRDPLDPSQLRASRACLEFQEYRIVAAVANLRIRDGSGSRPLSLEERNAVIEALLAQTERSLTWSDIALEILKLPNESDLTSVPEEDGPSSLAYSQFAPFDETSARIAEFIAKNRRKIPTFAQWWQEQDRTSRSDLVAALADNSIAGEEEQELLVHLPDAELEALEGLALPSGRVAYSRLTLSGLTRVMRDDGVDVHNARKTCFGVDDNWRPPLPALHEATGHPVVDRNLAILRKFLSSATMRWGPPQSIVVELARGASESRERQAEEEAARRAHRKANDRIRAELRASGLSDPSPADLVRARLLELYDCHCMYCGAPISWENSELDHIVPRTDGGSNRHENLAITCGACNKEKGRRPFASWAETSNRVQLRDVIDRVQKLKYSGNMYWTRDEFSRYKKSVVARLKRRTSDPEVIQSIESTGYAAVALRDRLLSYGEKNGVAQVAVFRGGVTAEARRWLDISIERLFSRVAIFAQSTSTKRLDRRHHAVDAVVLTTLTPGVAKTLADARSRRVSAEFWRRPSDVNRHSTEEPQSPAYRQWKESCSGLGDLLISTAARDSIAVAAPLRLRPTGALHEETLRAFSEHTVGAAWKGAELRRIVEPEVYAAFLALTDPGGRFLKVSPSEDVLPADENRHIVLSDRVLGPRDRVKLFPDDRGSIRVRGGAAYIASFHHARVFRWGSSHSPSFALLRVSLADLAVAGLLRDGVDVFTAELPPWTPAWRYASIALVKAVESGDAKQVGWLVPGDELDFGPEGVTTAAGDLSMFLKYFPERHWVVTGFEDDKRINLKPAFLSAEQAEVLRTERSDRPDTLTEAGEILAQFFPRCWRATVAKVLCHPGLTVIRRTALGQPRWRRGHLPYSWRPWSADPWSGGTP
Nature of the series: cell_activity.

Series [2] deals with T2, AceCas9 (Type II-C Cas9) (Acidothermus cellulolyticus 11B, UniProt A0LWB3 A0LWB3:1-1138).
T2 sequence: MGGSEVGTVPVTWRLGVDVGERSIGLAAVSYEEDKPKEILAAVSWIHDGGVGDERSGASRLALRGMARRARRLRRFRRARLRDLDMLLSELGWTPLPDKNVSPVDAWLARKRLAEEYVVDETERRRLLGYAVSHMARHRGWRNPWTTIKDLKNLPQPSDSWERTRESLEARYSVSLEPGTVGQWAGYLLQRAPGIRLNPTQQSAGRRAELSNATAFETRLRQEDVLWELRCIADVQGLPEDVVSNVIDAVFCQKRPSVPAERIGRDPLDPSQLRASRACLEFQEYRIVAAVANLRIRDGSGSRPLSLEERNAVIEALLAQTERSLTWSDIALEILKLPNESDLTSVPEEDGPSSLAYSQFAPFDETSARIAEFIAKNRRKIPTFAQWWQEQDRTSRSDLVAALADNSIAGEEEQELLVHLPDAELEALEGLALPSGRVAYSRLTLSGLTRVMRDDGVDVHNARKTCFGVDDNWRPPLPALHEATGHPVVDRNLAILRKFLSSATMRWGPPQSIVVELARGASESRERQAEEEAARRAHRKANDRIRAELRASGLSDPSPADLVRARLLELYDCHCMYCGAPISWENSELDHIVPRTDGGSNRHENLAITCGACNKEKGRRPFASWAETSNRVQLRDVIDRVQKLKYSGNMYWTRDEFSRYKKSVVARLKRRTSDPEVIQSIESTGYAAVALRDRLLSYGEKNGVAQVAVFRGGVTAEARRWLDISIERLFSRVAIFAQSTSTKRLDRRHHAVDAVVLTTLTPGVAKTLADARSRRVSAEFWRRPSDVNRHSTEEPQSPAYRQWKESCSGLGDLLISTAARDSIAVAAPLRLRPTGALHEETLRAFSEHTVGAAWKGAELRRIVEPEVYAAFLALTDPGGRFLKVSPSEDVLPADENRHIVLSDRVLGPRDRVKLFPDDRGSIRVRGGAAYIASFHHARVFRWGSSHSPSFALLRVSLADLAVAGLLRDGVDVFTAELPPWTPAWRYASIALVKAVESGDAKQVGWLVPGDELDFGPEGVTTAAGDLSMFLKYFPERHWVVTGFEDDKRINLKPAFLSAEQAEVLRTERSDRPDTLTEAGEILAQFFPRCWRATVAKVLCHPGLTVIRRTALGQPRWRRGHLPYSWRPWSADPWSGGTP
Kind of series: cleavage_in_vitro; 50 C. The conditions noted are these: tags: C-terminal His6 (pET28b, E. coli Rosetta DE3); linear plasmid.

“sgRNA 26-nt spacer ; ccdB plasmid PAMC(4,5)T” displayed an activity in series [1] ([28,29], NNNTT PAM) of under 0.001 % survival.

The molecule sgRNA 26-nt spacer ; ccdB plasmid PAMWT showed an activity in series [1] (E. coli ccdB selection) of 13.6 % survival.

Take sgRNA 22-nt spacer ; ccdB plasmid PAMWT: the activity in series [1] (E. coli ccdB selection) was under 0.01 % survival.

B1: sgRNA 24-nt spacer (template bottom strand; RNA is reverse complement without promoter) ; pUC19 WT target, BamHI-linearized (ssRNA ; dsDNA)
RNA: GGUAGGAUGGCAAGAUCCUGGUAUGCUGGGGAGCCUGAAAAGGCUACCUAGCAAGACCCCUUCGUGGGGUCGCAUUCUUCACCCCCUCGCAGCAGCGAGGGGGUUC
DNA 1: GGTAGGATGGCAAGATCCTGGTATACACC
DNA 2: GGTGTATACCAGGATCTTGCCATCCTACC
Consider B1, for which, in series [2], the activity is 0.53 min⁻¹.
